Assay results: the supplement of paper PMC9170038

Tested on: MS2 coat protein
Assay: apparent KD of MS2 coat protein; designed switch direction (-1 OFF switch, 1 ON switch): -1; higher = weaker reporter binding
How it was run: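 For each design, the apparent KD is the median over clusters of curves fitted to normalised cluster fluorescence. Clusters held RNA switches with common flanks, transcribed on Illumina chips by stalled E. coli RNA polymerase. These were titrated with SNAP-549-labelled MS2 coat protein, doubling from 0.7 or 1.5 nM to 3 µM, without input, with 200 uM small-molecule ligand, or with an oligonucleotide input.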

[1] = Eterna round: R95, input ligand: FMN 200 uM
[2] = Eterna round: R95, input ligand: microRNA oligo, concentration not stated
[3] = Eterna round: R95, input ligand: none
[4] = input ligand: microRNA oligo, concentration not stated

Sequence | apparent KD of MS2 coat protein [2] | apparent KD of MS2 coat protein (input ligand: FMN 200 uM) | apparent KD of MS2 coat protein (input ligand: none) | also measured
CAGGUGUUAGGAUAUCGGAGAUCGAGGCCGACGGGAAAAGCCGAGAAGGAACAUGAGGAUCACCCAUGUAGGUG [JR_Exclu4_Sub035] (puzzle: Exclusion 4) | 235 nM | – | – | apparent KD of MS2 coat protein [1]: 347 nM; apparent KD of MS2 coat protein [3]: 223 nM
CAGUACUGAGGAUAUACAUGAGGAUCACCCAUGUCCUUCAGCUAGGAAACUAGCGAAAGUAGAAGGCAGUACUG [Eli x3 4.001] (Eterna round: R97, puzzle: Exclusion 3) | – | 366 nM | 13.4 nM | –
CAGUACUGAGGAUAUACAUGAGGAUCACCCAUGUGCCUAAGGUAGGAUACUACCAUUAGUAGAAGGCAGUACUG [Fiskers Ex 3 828 mod 16] (puzzle: Exclusion 3) | 13.6 nM | – | – | –
CAGUACUGAGGAUAUACAUGAGGAUCACCCAUGUGGUUUAGUGCACGCGUACGUGUACGUAGAAGGCAGUACUG [JL 3.27 m8] (Eterna round: R97, puzzle: Exclusion 3) | – | 78.3 nM | 18.9 nM | –
CAGUACUGAGGAUAUACAUGAGGAUCACCCAUGUGUGAGAUACUAGUGAGGUCGAUUAGUAGAAGGCAGUACUG [Mat X3R4 m25] (Eterna round: R97, puzzle: Exclusion 3) | – | 957 nM | 26.3 nM | –
CAGUACUGAGGAUAUACAUGAGGAUCACCCAUGUGUGUGAAAUUUAUGUGGUCGUAAUGUAGAAGGCAGUACUG [JR_Ex3_Sub028] (Eterna round: R97, puzzle: Exclusion 3) | – | 30.5 nM | 62.9 nM | –
CAGUACUGAGGAUAUACAUGAGGAUCACCCAUGUGUUCCAGCUAGGAAACUAGCAAAAGUAGAAGGCUGUACUG [salish99_ex3_r3_088] (puzzle: Exclusion 3) | 17.9 nM | – | – | –
CAGUACUGAGGAUAUACAUGAGGAUCACCCAUGUGUUCCAGCUAGGAAACUAGCAUAUGUAGAAGGCAGUACUG [Eli x3 4.06] (Eterna round: R97, puzzle: Exclusion 3) | – | 578 nM | 298 nM | –
CAGUACUGCAGGCUUUGGGACAUGAGGAUCACCCAUGUUCGUCUUAUUGAUCUAGGUACGCUGACGUACCUAGAUCU [JL-sv1-2.14 Brourd mod] (puzzle: Sensor v3, turn-off variant 1) | 20 nM | – | – | apparent KD of MS2 coat protein [1]: 18.8 nM; apparent KD of MS2 coat protein [3]: 17.6 nM
CAGUGCGUAGGAUAUACGAGGGCCCUUUAUUGUUGAUAAUGACAUGAGGAUCACCCAUGUAGAAGGGCGUCAUG [Eternabot (L1) Solution 45] (Eterna round: R97, puzzle: Exclusion 2) | – | 87.3 nM | 24.8 nM | –
CAUACACAUGAGGAUCACCCAUGUGAGGAUAUUCGCGCGCGCGCCCGGGCGCGCGCGCGGAGAAGGCACGUGCG [My first try] (Eterna round: R97, puzzle: Exclusion 1) | – | 76.7 nM | 51.2 nM | –
CAUACAGUAGUUAGGAUAUUGCAACGUACACGGAACGAGAAGGGACAUGAGGAUCACCCAUGUAGAUUGUAAAG [EX-4 Malc #8] (puzzle: Brourd's mod of Exclusion 4) | 20 nM | – | – | –
CAUACUCAAGUCAGGAUAUAGAGUCGGAUACGGAUCUAGAAGGGACAUGAGGAUCACCCAUGUAGAGAGUAAAG [EX-4 Malc #25] (puzzle: Brourd's mod of Exclusion 4) | 38 nM | – | – | apparent KD of MS2 coat protein [1]: 88 nM; apparent KD of MS2 coat protein [3]: 21.1 nM
CAUAGUAAUUAGGAUAUCUGCCGGCUGAACCGAGGAGAAGGGAUUACAUGAGGAUCACCCAUGUGGUCCUAAGA [Relegebe] (puzzle: Exclusion 6) | 14.5 nM | – | – | –
CAUAGUUGCUCAGGAUAUCAUACAUGAGGAUCACCCAUGUAAUAAAUGAGAAUUUCGAAUGUAAAUGAGAAGGGAGAAAUCUAC [Ostracism 60 - Jieux - Exclusion NG 2] (Eterna round: R96, puzzle: Exclusion NG 2) | – | 22.5 nM | 14.4 nM | apparent KD of MS2 coat protein [4]: 11.6 nM
CAUAUAGUAGUGAGGAUAUGCGAAUAUAUAAUUAAGUAGAAGGCACAUGAGGAUCACCCAUGUAUAUUGUAAAG [EX-4 Malc] (puzzle: Brourd's mod of Exclusion 4) | 18.9 nM | – | – | –
CAUGAUCUUCGGAUCAUGUACAUGAGGAUCACCCAUGUUACGAGCAGAUCUUCAUACAAGCUUUUUGCUCGUCUUAU [Sensor v3 - Turn-off variant 1 - 34] (puzzle: Sensor v3, turn-off variant 1) | 64.9 nM | – | – | apparent KD of MS2 coat protein [1]: 34.5 nM; apparent KD of MS2 coat protein [3]: 40.4 nM
CAUGAUUGGGAAGGAUAUUGACCUAGUUAGUGCCGAGAAGGUCCCUUUCACAUGAGGAUCACCCAUGUGAGUCUGGUGUUCGAG [Ex NG1 #97] (Eterna round: R96, puzzle: Exclusion NG 1) | – | 43.1 nM | 30.5 nM | apparent KD of MS2 coat protein [4]: 23.7 nM
CAUGGAACGUAGGAUAUCUCACAGCCAGGCUGCAGAGAAGGACGUACAUGAGGAUCACCCAUGUAUGAUCCAAA [Tius] (puzzle: Exclusion 6) | 15.5 nM | – | – | apparent KD of MS2 coat protein [1]: 26.9 nM; apparent KD of MS2 coat protein [3]: 17.5 nM
CAUGUCCAACGAGGAUAUGGUAAAGGAAGUGUACCAGAAGGCGUGCGGACAUGAGGAUCACCCAUGUCGCGCGGUGCGAUGUGG [MOD3 Nando EXNG 1.1] (Eterna round: R96, puzzle: Exclusion NG 1) | – | 37.2 nM | 29.3 nM | apparent KD of MS2 coat protein [4]: 15.8 nM
CAUGUCUGAGGAUAUCGUUAUUUGUACAUGAGGAUCACCCAUGUCCUAUUUAUUAUAUUUCGAGAAGGCAGUGUAU [JR_E5_Sub093] (puzzle: Exclusion 5) | 15.6 nM | – | – | –
CAUGUCUGAGGAUAUCGUUUUUUGUACAUGAGGAUCACCCAUGUCCUAUUUUUUUUAUUUCGAGAAGGCAGUGUAU [JR_E5_Sub092] (puzzle: Exclusion 5) | 32.6 nM | – | – | –
CAUUAGCGAGGAUAUACAUGAGGAUCACCCAUGUGAUCCUAAGGCUGAUGAAGCCUAUGUAGAAGGCGCAAAUU [jl-ex3.4.54 ViennaUCT mod] (Eterna round: R97, puzzle: Exclusion 3) | – | 107 nM | 42.2 nM | –
CCAAGAAUAGGAUAUACACCAUGUCAGCUUCUAUACAACGCACAUGAGGAUCACCCAUGUAGAAGGGUUCUCUC [Exclusion-2-#3] (Eterna round: R97, puzzle: Exclusion 2) | – | 386 nM | 433 nM | –
CCAAUCAGAGGAUAUGCGAAUAAAUAAAACUUUUUUUUUUAACAUGAGGAUCACCCAUGUAGAAGGCUGUAACC [Ex2 #43] (Eterna round: R97, puzzle: Exclusion 2) | – | 31.5 nM | 25.4 nM | –
CCACGUCCGUACGUGUACUUGUCUCCUGUGUGCCCGGGUACAUGAGGAUCACCCAUGUCUGUGCUCGCCUUCUGCCC [JR_Sensorv2_tov2_Sub724] (Eterna round: R96, puzzle: Sensor v2, turn-off variant 2) | – | 126 nM | 165 nM | apparent KD of MS2 coat protein [4]: 84.7 nM
CCAGCGUAUGUGAGGAUAUGCUGGUCCUUGGAUCAGCAGAAGGCACAUGAGGAUCACCCAUGUGAGAACGUUGG [JL bmx4 3.38] (puzzle: Brourd's mod of Exclusion 4) | 24.6 nM | – | – | –
